Source: paper PMC11190491

Biological target: peptide on cattle MR1 (cattle)
Assay: data from (80); method not given; cattle MR1 without riboflavin-based antigen

Kd: 30 µM
Substance: A-F7 MAIT TCR
